{"source": "paper PMC9156751", "about": "“Dynamic arrest and aging of biomolecular condensates are modulated by low-complexity domains, RNA and biochemical activity” (Nature Communications, 2022)", "proteins": {"B1": {"name": "mCherry-tagged Dhh1^48–425 (domain or fragment, yeast, UniProt P39517 48-425, looked up)", "chain": "FEDFYLKRELLMGIFEAGFEKPSPIQEEAIPVAITGRDILARAKNGTGKTAAFVIPTLEKVKPKLNKIQALIMVPTRELALQTSQVVRTLGKHCGISCMVTTGGTNLRDDILRLNETVHILVGTPGRVLDLASRKVADLSDCSLFIMDEADKMLSRDFKTIIEQILSFLPPTHQSLLFSATFPLTVKEFMVKHLHKPYEINLMEELTLKGITQYYAFVEERQKLHCLNTLFSKLQINQAIIFCNSTNRVELLAKKITDLGYSCYYSHARMKQQERNKVFHEFRQGKVRTLVCSDLLTRGIDIQAVNVVINFDFPKTAETYLHRIGRSGRFGHLGLAINLINWNDRFNLYKIEQELGTEIAAIPATIDKSLYVAENDET", "notes": "DEAD-box ATPase Dhh1 of yeast, residues 48-425: the two RecA domains without the N- and C-terminal low-complexity domains; also called tail-less Dhh1^48–425; LCD-lacking variant; source: E. coli BL21-Gold (DE3), purified (Ni2+ Chelating Sepharose, Superdex 75 SEC)"}}, "biological_target": "the molecule itself", "assay": "dynamic light scattering; 5 µM Dhh1 with an excess of 5 mM ATP/MgCl2, no RNA; reference buffer 90 mM KCl, 30 mM HEPES-KOH pH 7.4, 2 mM MgCl2; Zetasizer Nano ZS, 173° backscattering; combined with microscopy", "data": [{"protein": "B1", "values": [{"measurement": "binding result", "value": "binds"}]}]}
